Results from patent US20200079876A1 (BIOVERATIV USA, published 2020).
Where a chain is given by its changes, count along the chain named. Each block holds one binder with its values, some of them ahead of it.

Columns and labels:
[1] = target: T1, recombinant human complement component C1s (rhC1s) (human, UniProt P09871 16-688); assay: cell-based or functional assay
T1 sequence (looked up): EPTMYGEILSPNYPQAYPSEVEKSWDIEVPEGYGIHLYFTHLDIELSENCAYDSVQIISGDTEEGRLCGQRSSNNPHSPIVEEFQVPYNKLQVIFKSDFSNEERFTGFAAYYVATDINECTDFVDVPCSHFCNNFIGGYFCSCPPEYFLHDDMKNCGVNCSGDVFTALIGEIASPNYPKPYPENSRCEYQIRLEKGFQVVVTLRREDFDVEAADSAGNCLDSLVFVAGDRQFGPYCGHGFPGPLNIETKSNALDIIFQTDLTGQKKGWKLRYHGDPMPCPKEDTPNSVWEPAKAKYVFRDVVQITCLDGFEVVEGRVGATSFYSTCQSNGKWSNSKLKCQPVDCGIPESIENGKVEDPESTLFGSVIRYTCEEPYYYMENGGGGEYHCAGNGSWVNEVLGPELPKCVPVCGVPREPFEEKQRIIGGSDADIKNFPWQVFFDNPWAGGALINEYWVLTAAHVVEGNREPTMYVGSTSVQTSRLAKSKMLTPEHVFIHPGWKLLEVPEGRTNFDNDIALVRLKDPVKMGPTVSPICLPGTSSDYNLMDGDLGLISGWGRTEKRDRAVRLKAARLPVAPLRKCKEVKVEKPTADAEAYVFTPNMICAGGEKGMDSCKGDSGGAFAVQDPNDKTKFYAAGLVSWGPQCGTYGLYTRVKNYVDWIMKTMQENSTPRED

[2] = target: T1, recombinant human complement component …; assay: cell-based or functional assay; remark: listed apart in the source
[3] = target: T2, purified human activated C1s protein, two-chain form (Homo sapiens, UniProt P09871 16-688); assay: bio-layer interferometry (BLI), kinetic analysis
T2 construct: Purified protein bought from EMD Millipore; Biotin-labeled in the clone screen; also called active C1s; native C1s protein
T2 sequence: T1 sequence (looked up)

[4] = target: T3, Pro-C1s; assay: bio-layer interferometry (BLI), kinetic analysis
T3 construct: also called purified pro-C1s protein
T3 chain: T1 sequence (looked up)

- inhibition of C1s protease activity (relative to nafamostat) [1]: > 50%
- Inhibition of C1s Protease Activity (%), single point with clone supernatant, relative to 100 nM nafamostat [2]: 92%
- Kd [3]: 0.21 nM
- koff [3]: 0.000182 s⁻¹
- kon [3]: 864000 M⁻¹ s⁻¹
- Kd [4]: 35.2 nM
- koff [4]: 0.000329 s⁻¹
- kon [4]: 9330 M⁻¹ s⁻¹
B1: antibody IPN-M11 (antibody, V domains shown)
VH: QVQLQQSGAELVRPGASVKLSCTASGFNIKDDYIHWVKQRPEQGLEWIGRIDPADDHTKYAPKFQDKATMTADTSSNTACLQLNSLTSEDTAVYYCAIYGSGWAWFPYWGQGTLVSVSA
VL: DIVMTQSPDYLAVSLGQRAPISCKASQSVDYDGDSYMNWYQQKPGQPPKLLIYAASNLEFGIPTRFSGSGFGTDFPLNIHPVEEEDAATYYCQQSNEDPWTFGGGPKLEIK
notes: Mouse monoclonal antibody (NZBW hybridoma)

- inhibition of C1s protease activity (relative to nafamostat) [1]: > 50%
- Inhibition of C1s Protease Activity (%), single point with clone supernatant, relative to 100 nM nafamostat [2]: 96%
- Kd [3]: 0.133 nM
- koff [3]: 0.000113 s⁻¹
- kon [3]: 851000 M⁻¹ s⁻¹
- Kd [4]: 15.9 nM
- koff [4]: 0.000258 s⁻¹
- kon [4]: 16200 M⁻¹ s⁻¹
B2: antibody IPN-M13 (antibody, V domains shown)
VH: B1 VH with Q1E
VL: B1 VL with M4L, P8T, P20T, F60S, T64A, F71S, P76T, P106T
notes: Mouse monoclonal antibody (NZBW hybridoma); Same VL and VH as IPN-M1 and IPN-M3
